From patent US20240376151A1, “STAPLED PEPTIDES AND METHODS THEREOF” (FOG PHARMACEUTICALS, INC., priority 2022, published 2024)
Numbered stars: 1 amine (or outer) side, 2 acyl side, 3 side chain; on linkers, the order of the positions; unused ones are H or OH. Bridge positions count the residues as written; N and C are the ends. Ends that are not written are not given here. Phenylene(1,4-NHCOCH2)2 = O=C(C[*:1])Nc1ccc(NC(=O)C[*:2])cc1

Legend:
WWP1 = biological target: T1, WWP1 (Homo sapiens, UniProt Q9H0M0); test: Naive Library Presenter Screening (phage, NGS), WWP1 (construct not given); type: binding; conditions: for interaction data at Target Concentration 10: WWP1 target concentration 10 nM; for interaction data at Target Concentration 30: WWP1 target concentration 30 nM; for interaction data at Target Concentration 100: WWP1 target concentration 100 nM; for interaction data at Target Concentration 300: WWP1 target concentration 300 nM; for interaction data at Target Concentration 1000: WWP1 target concentration 1000 nM
T1 construct: GST-TEV (N, cleaved yes); made in house; host or cells: Escherichia coli BL21 (DE3)

WWP2^HECT = biological target: T2, WWP2^HECT (Homo sapiens, UniProt O00308); test: Naive Library Presenter Screening (phage, NGS), WWP2^HECT; type: binding; conditions: for interaction data at Target Concentration 10: WWP2 target concentration 10 nM; for interaction data at Target Concentration 30: WWP2 target concentration 30 nM; for interaction data at Target Concentration 100: WWP2 target concentration 100 nM; for interaction data at Target Concentration 300: WWP2 target concentration 300 nM; for interaction data at Target Concentration 1000: WWP2 target concentration 1000 nM
T2 construct: GST-TEV (N, cleaved yes); made in house; host or cells: Escherichia coli BL21 (DE3)
T2 sequence (O00308 492-865): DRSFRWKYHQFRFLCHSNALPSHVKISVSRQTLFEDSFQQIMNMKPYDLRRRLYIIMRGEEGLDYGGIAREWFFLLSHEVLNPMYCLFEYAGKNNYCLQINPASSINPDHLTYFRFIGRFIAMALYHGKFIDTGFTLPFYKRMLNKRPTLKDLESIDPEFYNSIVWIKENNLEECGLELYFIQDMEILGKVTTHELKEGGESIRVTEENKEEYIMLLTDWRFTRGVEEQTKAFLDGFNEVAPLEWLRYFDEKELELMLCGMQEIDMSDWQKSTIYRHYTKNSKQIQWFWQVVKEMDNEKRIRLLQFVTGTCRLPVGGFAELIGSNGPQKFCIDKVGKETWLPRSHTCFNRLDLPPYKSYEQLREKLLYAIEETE

| Sequence | interaction data at Target Concentration 10 (WWP1) | interaction data at Target Concentration 30 (WWP1) | interaction data at Target Concentration 100 (WWP1) | interaction data at Target Concentration 300 (WWP1) | interaction data at Target Concentration 1000 (WWP1; second column) | interaction data at Target Concentration 1000 (WWP1; first column) | interaction data at Target Concentration 10 (WWP2^HECT) | interaction data at Target Concentration 30 (WWP2^HECT) | interaction data at Target Concentration 100 (WWP2^HECT) | interaction data at Target Concentration 300 (WWP2^HECT) | interaction data at Target Concentration 1000 (WWP2^HECT; first column) | interaction data at Target Concentration 1000 (WWP2^HECT; second column) |
| --- | --- | --- | --- | --- | --- | --- | --- | --- | --- | --- | --- | --- |
| DPAATLCNQAANVCALL (linker 7-14 via Phenylene(1,4-NHCOCH2)2) | 0 | 0 | 132 | 145 | 197 | – | – | – | – | – | – | – |
| DPAFHYCTMAANMCHQD (linker 7-14 via Phenylene(1,4-NHCOCH2)2) | 0 | 0 | 3 | 73 | 169 | – | – | – | – | – | – | – |
| DPAFIQCTHAANMCHSS (linker 7-14 via Phenylene(1,4-NHCOCH2)2) | 0 | 3 | 43 | – | 562 | 336 | – | – | – | – | – | – |
| DPAFLTCTLAASLCHQD (linker 7-14 via Phenylene(1,4-NHCOCH2)2) | 0 | 0 | 0 | 145 | 253 | – | – | – | – | – | – | – |
| DPAHQTCAFAAVLCHQN (linker 7-14 via Phenylene(1,4-NHCOCH2)2) | 0 | 0 | 32 | 18 | 309 | – | – | – | – | – | – | – |
| DPAQNMCQAAADVCMFF (DPAQNMCQAAADVCMFF-NH2; linker 7-14 via Phenylene(1,4-NHCOCH2)2; N-terminus assumed; SMILES CSCC[C@H](NC(=O)[C@H](CC(N)=O)NC(=O)[C@H](CCC(N)=O)NC(=O)[C@H](C)NC(=O)[C@@H]1CCCN1C(=O)[C@@H](N)CC(=O)O)C(=O)N[C@H]1CSCC(=O)Nc2ccc(cc2)NC(=O)CSC[C@@H](C(=O)N[C@@H](CCSC)C(=O)N[C@@H](Cc2ccccc2)C(=O)N[C@@H](Cc2ccccc2)C(N)=O)NC(=O)[C@H](C(C)C)NC(=O)[C@H](CC(=O)O)NC(=O)[C@H](C)NC(=O)[C@H](C)NC(=O)[C@H](C)NC(=O)[C@H](CCC(N)=O)NC1=O) | – | – | – | – | – | – | 2 | 67 | 51 | 125 | 120 | 127 |
| DPARVDCLVAADMCHMF (DPARVDCLVAADMCHMF-NH2; linker 7-14 via Phenylene(1,4-NHCOCH2)2; N-terminus assumed; SMILES CSCC[C@H](NC(=O)[C@H](Cc1c[nH]cn1)NC(=O)[C@@H]1CSCC(=O)Nc2ccc(cc2)NC(=O)CSC[C@H](NC(=O)[C@H](CC(=O)O)NC(=O)[C@@H](NC(=O)[C@H](CCCNC(=N)N)NC(=O)[C@H](C)NC(=O)[C@@H]2CCCN2C(=O)[C@@H](N)CC(=O)O)C(C)C)C(=O)N[C@@H](CC(C)C)C(=O)N[C@@H](C(C)C)C(=O)N[C@@H](C)C(=O)N[C@@H](C)C(=O)N[C@@H](CC(=O)O)C(=O)N[C@@H](CCSC)C(=O)N1)C(=O)N[C@@H](Cc1ccccc1)C(N)=O) | – | – | – | – | – | – | 165 | 532 | 522 | 555 | 466 | 573 |
| DPARVNCHAAADTCFFF (linker 7-14 via Phenylene(1,4-NHCOCH2)2) | – | – | – | – | – | – | 6 | 83 | 76 | 103 | – | 123 |
| DPATWACINAAHNCWRN (DPATWACINAAHNCWRN-NH2; linker 7-14 via Phenylene(1,4-NHCOCH2)2 (inferred)) | – | – | – | – | – | – | 0 | 0 | 0 | 6 | 23 | 15 |
| DPATWDCIWAAERCWRY (linker 7-14 via Phenylene(1,4-NHCOCH2)2 (inferred); not fully specified (C-terminus)) | – | – | – | – | – | – | 0 | 0 | 1 | 4 | 9 | 13 |
| DPATWDCNVAAHRCWFL (linker 7-14 via Phenylene(1,4-NHCOCH2)2 (inferred); not fully specified (C-terminus)) | – | – | – | – | – | – | 1 | 0 | 12 | 60 | 40 | 75 |
| DPATWDCQQAAHHCWVL (linker 7-14 via Phenylene(1,4-NHCOCH2)2 (inferred); not fully specified (C-terminus)) | – | – | – | – | – | – | 0 | 0 | 2 | 23 | 35 | 66 |
| DPATWDCRNAAWLCLLN (linker 7-14 via Phenylene(1,4-NHCOCH2)2 (inferred); not fully specified (C-terminus)) | – | – | – | – | – | – | 0 | 1 | 4 | 8 | 12 | 12 |
| DPATYYCEAAAETCRFF (linker 7-14 via Phenylene(1,4-NHCOCH2)2 (inferred); not fully specified (C-terminus)) | – | – | – | – | – | – | 37 | 57 | 70 | 94 | 78 | 123 |
| DPAVWDCRYAAWDCYTN (linker 7-14 via Phenylene(1,4-NHCOCH2)2 (inferred); not fully specified (C-terminus)) | – | – | – | – | – | – | 0 | 0 | 0 | 28 | 33 | 15 |
| DPAVWECRWAAFQCWLD (linker 7-14 via Phenylene(1,4-NHCOCH2)2 (inferred); not fully specified (C-terminus)) | – | – | – | – | – | – | 0 | 0 | 88 | 86 | 97 | 107 |
| DPAYHHCLAAADLCSFF | – | – | – | – | – | – | 59 | 97 | 107 | 147 | 101 | 141 |
